Each block holds one binder with its values, some of them ahead of it.
Key:
[1] = molecular target: T1, recombinant human NKp46 expressed on the surface of CHO cells (human, UniProt O76036 22-304); assay: flow cytometry, CHO-huNKp46 cells, apparent KD; SD 2.8
T1 construct: whole, on cells; also called huNKp46; CD355
Description: (§1) The CHO cells were incubated with serial dilutions of the indicated trispecific constructs and control constructs at 37° C., and cell surface bound antibodies were detected by FITC-conjugated goat anti-human IgG Fc and flow cytometric analysis. Measured median fluorescence intensity values were used to calculate apparent affinities (KD) by non-linear regression.

[2] = molecular target: T2, recombinant human CD32A expressed on the surface of CHO cells (human, UniProt P12318 34-317); assay: flow cytometry, CHO-huCD32A cells, apparent KD; SD 405.5
T2 construct: whole, on cells; also called huCD32A
T2 sequence (looked up): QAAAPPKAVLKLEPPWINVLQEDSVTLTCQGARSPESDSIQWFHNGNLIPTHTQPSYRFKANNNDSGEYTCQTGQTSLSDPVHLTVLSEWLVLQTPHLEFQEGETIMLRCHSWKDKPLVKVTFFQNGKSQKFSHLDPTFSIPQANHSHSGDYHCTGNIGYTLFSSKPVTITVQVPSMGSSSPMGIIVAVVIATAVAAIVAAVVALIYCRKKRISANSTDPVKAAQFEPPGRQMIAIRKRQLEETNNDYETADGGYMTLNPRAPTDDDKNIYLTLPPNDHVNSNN
Description: as §1

[3] = molecular target: T3, recombinant human CD64 expressed on the surface of CHO cells (human, UniProt P12314 16-374); assay: flow cytometry, CHO-huCD64 cells, apparent KD; SD 2.7
T3 construct: whole, on cells; also called huCD64
T3 sequence (P12314 16-374): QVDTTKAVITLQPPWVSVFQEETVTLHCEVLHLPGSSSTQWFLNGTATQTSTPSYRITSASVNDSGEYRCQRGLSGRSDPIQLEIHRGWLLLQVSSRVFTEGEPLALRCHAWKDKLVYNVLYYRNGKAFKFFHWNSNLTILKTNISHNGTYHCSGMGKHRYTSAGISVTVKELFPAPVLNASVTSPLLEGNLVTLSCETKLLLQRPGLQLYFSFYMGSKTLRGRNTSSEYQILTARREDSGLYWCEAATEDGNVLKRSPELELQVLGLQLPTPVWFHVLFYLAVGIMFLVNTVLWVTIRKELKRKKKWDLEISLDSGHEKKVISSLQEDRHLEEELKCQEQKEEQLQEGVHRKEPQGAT
Description: as §1

[4] = molecular target: T2, recombinant human CD32A expressed on …; assay: flow cytometry, CHO-huCD32A cells, apparent KD; SD 64.3
[5] = molecular target: T3, recombinant human CD64 expressed on the …; assay: flow cytometry, CHO-huCD64 cells, apparent KD; SD 6.6
[6] = molecular target: T4, recombinant human CD16A (48R/158F) expressed on the surface of CHO cells (human, UniProt P08637 17-254); assay: flow cytometry, CHO-huCD16A cells, apparent KD; SD n.a.
T4 construct: also called huCD16A; CD16A (158F)

[7] = molecular target: T1, recombinant human NKp46 expressed on …; assay: flow cytometry, CHO-huNKp46 cells, apparent KD; SD 3.7
[8] = molecular target: T3, recombinant human CD64 expressed on the …; assay: flow cytometry, CHO-huCD64 cells, apparent KD; SD 7.7
Description: as §1

[9] = molecular target: T2, recombinant human CD32A expressed on …; assay: flow cytometry, CHO-huCD32A cells, apparent KD; SD n.a.
Description: as §1

[10] = molecular target: T5, recombinant human NKG2D expressed on the surface of CHO cells (human, UniProt P26718 1-216); assay: flow cytometry, CHO-huNKG2D cells, apparent KD; SD 6.8
T5 construct: whole, on cells; also called huNKG2D; CD314
T5 sequence (looked up): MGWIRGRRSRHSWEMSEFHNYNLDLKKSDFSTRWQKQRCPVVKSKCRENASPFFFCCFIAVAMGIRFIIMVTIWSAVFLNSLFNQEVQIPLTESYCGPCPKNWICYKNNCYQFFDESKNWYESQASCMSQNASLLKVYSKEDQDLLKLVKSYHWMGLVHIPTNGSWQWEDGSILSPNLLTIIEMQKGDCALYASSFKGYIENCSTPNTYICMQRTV
Description: as §1

[11] = molecular target: T3, recombinant human CD64 expressed on the …; assay: flow cytometry, CHO-huCD64 cells, apparent KD; SD 7.6
Description: as §1

[12] = molecular target: T5, recombinant human NKG2D expressed on …; assay: flow cytometry, CHO-huNKG2D cells, apparent KD; SD 16.2
Description: as §1

[13] = molecular target: T2, recombinant human CD32A expressed on …; assay: flow cytometry, CHO-huCD32A cells, apparent KD; SD 2169.4
[14] = molecular target: T1, recombinant human NKp46 expressed on …; assay: flow cytometry, CHO-huNKp46 cells, apparent KD; SD 1.9
[15] = molecular target: T3, recombinant human CD64 expressed on the …; assay: flow cytometry, CHO-huCD64 cells, apparent KD; SD 5.8

T1 sequence (O76036 22-304): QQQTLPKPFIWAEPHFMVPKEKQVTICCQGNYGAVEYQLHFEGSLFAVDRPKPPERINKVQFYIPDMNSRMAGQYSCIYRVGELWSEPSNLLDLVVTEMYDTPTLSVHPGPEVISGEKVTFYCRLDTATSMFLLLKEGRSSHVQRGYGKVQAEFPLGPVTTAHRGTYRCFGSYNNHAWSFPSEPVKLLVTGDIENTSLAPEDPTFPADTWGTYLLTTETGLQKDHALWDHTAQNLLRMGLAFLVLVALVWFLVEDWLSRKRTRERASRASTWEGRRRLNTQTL

Kd [1]: 45.8 nM
Kd [2]: 1010 nM
Kd [3]: 12.6 nM
B1: 1Fab-AFc-1Fab-6 (bispecific antibody, human IgG1, kappa)
chain 1: DIVMTQSPATLSLSPGERATLSCRSSKSLQNVNGNTYLYWFQQKPGQSPQLLIYRMSNLNSGVPDRFSGSGSGTEFTLTISSLEPEDFAVYYCMQHLEYPITFGAGTKLEIKRTVAAPSVFIFPPSDEQLKSGTASVVCLLNNFYPREAKVQWKVDNALQSGNSQESVTEQDSKDSTYSLSSTLTLSKADYEKHKVYACEVTHQGLSSPVTKSFNRGECDKTHTCPPCPAPELLGGPDVFLFPPKPKDTLMISRTPEVTCVVVDVSHEDPEVKFNWYVDGVEVHNAKTKPREEQYNSTYRVVSVLTVLHQDWLNGKEYKCKVSNKALPAPEEKTISKAKGQPREPQVYTLPPSREEMTKNQVSLWCLVKGFYPSDIAVEWESNGQPENNYKTTPPVLDSDGSFFLYSKLTVDKSRWQQGNVFSCSVMHEALHNHYTQKSLSLSPGK
chain 2: EVQLVESGGGLVKPGGSLKLSCAASGYTFTSYVMHWVRQAPGKGLEWIGYINPYNDGTKYNEKFQGRVTISSDKSISTAYMELSSLRSEDTAMYYCARGTYYYGTRVFDYWGQGTLVTVSSASTKGPSVFPLAPSSKSTSGGTAALGCLVKDYFPEPVTVSWNSGALTSGVHTFPAVLQSSGLYSLSSVVTVPSSSLGTQTYICNVNHKPSNTKVDKKVEPKSCDKTHTCPPCPAPELLGGPDVFLFPPKPKDTLMISRTPEVTCVVVDVSHEDPEVKFNWYVDGVEVHNAKTKPREEQYNSTYRVVSVLTVLHQDWLNGKEYKCKVSNKALPAPEEKTISKAKGQPREPQVYTLPPSREEMTKNQVSLSCAVKGFYPSDIAVEWESNGQPENNYKTTPPVLDSDGSFFLVSKLTVDKSRWQQGNVFSCSVMHEALHNHYTQKSLSLSPGSTGSEVQLQQSGPELVKPGASVKISCKTSGYTFTEYTMHWVKQSHGKSLEWIGGISPNIGGTSYNQKFKGKATLTVDKSSSTAYMELRSLTSEDSAVYYCARRGGSFDYWGQGTTLTVSSRTVAAPSVFIFPPSDEQLKSGTASVVCLLNNFYPREAKVQWKVDNALQSGNSQESVTEQDSKDSTYSLSSTLTLSKADYEKHKVYACEVTHQGLSSPVTKSFNRGEC
chain 3: DIVMTQSPATLSVTPGDRVSLSCRASQSISDYLHWYQQKSHESPRLLIKYASQSISGIPSRFSGSGSGSDFTLSINSVEPEDVGVYYCQNGHSFPLTFGAGTKLELKASTKGPSVFPLAPSSKSTSGGTAALGCLVKDYFPEPVTVSWNSGALTSGVHTFPAVLQSSGLYSLSSVVTVPSSSLGTQTYICNVNHKPSNTKVDKKVEPKSCDKTH
notes: CD19, Fc-enhanced Fc, NKp46(NKp46-3); also called ComparatorA_6

Kd [4]: 374 nM
Kd [5]: 34.1 nM
Kd [6]: 5.19 µM
Kd [7]: 9.8 nM
B2: scFv-IgAb-396 (bispecific antibody)
chain 1: not shown
chain 2: DIVMTQSPATLSLSPGERATLSCRSSKSLQNVNGNTYLYWFQQKPGQSPQLLIYRMSNLNSGVPDRFSGSGSGTEFTLTISSLEPEDFAVYYCMQHLEYPITFGAGTKLEIKRTVAAPSVFIFPPSDEQLKSGTASVVCLLNNFYPREAKVQWKVDNALQSGNSQESVTEQDSKDSTYSLSSTLTLSKADYEKHKVYACEVTHQGLSSPVTKSFNRGEC

Kd [8]: 22.8 nM
Kd [9]: 2530 nM
Kd [10]: 22.3 nM
B3: AIG-1scFv-6 (ComparatorB_2) (bispecific antibody, human IgG1, kappa)
heavy 1: not shown
light: DIVMTQSPATLSLSPGERATLSCRSSKSLQNVNGNTYLYWFQQKPGQSPQLLIYRMSNLNSGVPDRFSGSGSGTEFTLTISSLEPEDFAVYYCMQHLEYPITFGAGTKLEIKRTVAAPSVFIFPPSDEQLKSGTASVVCLLNNFYPREAKVQWKVDNALQSGNSQESVTEQDSKDSTYSLSSTLTLSKADYEKHKVYACEVTHQGLSSPVTKSFNRGEC
heavy 2: not shown
notes: CD19, wt Fc, NKG2D(ADI-27743)

Kd [11]: 27.4 nM
Kd [9]: 2470 nM
Kd [12]: 28.5 nM
B4: AIG-1scFv-5 (ComparatorB_1) (bispecific antibody, human IgG1, kappa)
heavy 1: not shown
light: DIVMTQSPATLSLSPGERATLSCRSSKSLQNVNGNTYLYWFQQKPGQSPQLLIYRMSNLNSGVPDRFSGSGSGTEFTLTISSLEPEDFAVYYCMQHLEYPITFGAGTKLEIKRTVAAPSVFIFPPSDEQLKSGTASVVCLLNNFYPREAKVQWKVDNALQSGNSQESVTEQDSKDSTYSLSSTLTLSKADYEKHKVYACEVTHQGLSSPVTKSFNRGEC
heavy 2: not shown
notes: CD19, wt Fc, NKG2D(KYK-2.0)

Kd [13]: 5.63 µM
Kd [14]: 5.7 nM
Kd [15]: 42.3 nM
B5: scFv-IgAb-395 (bispecific antibody)
chain 1: not shown
chain 2: DIVMTQSPATLSLSPGERATLSCRSSKSLQNVNGNTYLYWFQQKPGQSPQLLIYRMSNLNSGVPDRFSGSGSGTEFTLTISSLEPEDFAVYYCMQHLEYPITFGAGTKLEIKRTVAAPSVFIFPPSDEQLKSGTASVVCLLNNFYPREAKVQWKVDNALQSGNSQESVTEQDSKDSTYSLSSTLTLSKADYEKHKVYACEVTHQGLSSPVTKSFNRGEC

Reference: patent publication US20230365709A1 (published 2023)
